The values below come from patent US20150087814A1.

One assay has as its target FcγRIIIa-F158 (UniProt P08637). The assay is described as follows: SPR (Biacore T100), antibody captured on protein A chip, receptor injected as analyte, 1:1 steady-state fit. (In general: Surface plasmon resonance follows binding to a sensor surface in real time, without labels.)
Another assay has as its target FcγRIIb (UniProt P31994). The assay is described as follows: SPR (Biacore T100), antibody captured on protein A chip, receptor injected as analyte.

FcγRIIb, sequence (P31994 46-217 limits assumed): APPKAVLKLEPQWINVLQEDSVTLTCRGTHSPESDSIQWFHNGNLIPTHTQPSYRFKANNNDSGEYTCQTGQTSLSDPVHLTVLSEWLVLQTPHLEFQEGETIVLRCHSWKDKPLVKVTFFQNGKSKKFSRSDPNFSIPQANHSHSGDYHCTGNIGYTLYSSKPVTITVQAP
FcγRIIIa-F158, sequence (P08637 17-208 limits assumed): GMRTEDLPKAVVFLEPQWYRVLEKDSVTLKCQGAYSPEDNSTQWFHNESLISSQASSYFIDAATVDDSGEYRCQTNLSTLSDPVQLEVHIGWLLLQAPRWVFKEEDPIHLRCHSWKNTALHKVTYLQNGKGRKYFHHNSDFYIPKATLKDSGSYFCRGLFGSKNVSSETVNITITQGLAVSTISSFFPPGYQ

For “nonfucosylated G2 glycoform of rituximab (10) (antibody)”, the Kd (in general, the constant that tells how readily two partners part at equilibrium) is 123 nM with FcγRIIIa-F158 and 2300 nM with FcγRIIb.
